Target: ACM2 variant of AC fused to GFP (ACM2-GFP), encoded by plasmid pACM2-Gfp (Bordetella pertussis | not stated) (UniProt P0DKX7)
Assay: two-hybrid

calmodulin (CaM) with a 6-histidine tag at its N-terminus and a tetra-cysteine tag at its C-terminus, encoded by plasmid pTCam (from UniProt P0DP23 1-149) (natural protein)
ß gal (Rel. Units): 8 Rel. Units
